From the domain aggregation screens of Martell et al. (2025)

Test: soluble fraction after stress (log2 fold change); higher = more stays soluble; pooled small domains, quantitative proteomics
Details: stress: pH 4
Summary of the method: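 Values are log2 fold changes, and higher ones mean more of the domain stayed soluble. Each fold change reflects the soluble amount of a domain after acid stress and is taken as a measure of aggregation propensity. The stress was pH 4, applied to pooled custom libraries of small protein domains analysed by high-throughput quantitative proteomics.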

First: HMSRELVILGNSMLNNALKAFHVSPASIKKKHWDKLILDYHLESKNNILIDIALGKRINVMVAHQLTSIID
Second: HMQQVLGDVNEDDKVDFLDAIVVLRHDAEIIQLTDNQMKAAEVNKDGKVDFLDAIMILRYDAEIIGS
The “soluble fraction (log2)” value of the first is higher: no less than 0.43 for the first, -0.196 for the second.

Compared with “HMGTMKGFVDGSSVHLRSGPSLSESIRAKVVKGQTLYITERRGDWYRATVHGGGEGWIHTSLVKLAG”, “HMIPLPEDVASMRERLALTPEKADELFGLEDGSFARYEHGEEKVPFVVFQLLWLLGKYPHLIGELR” is lower in “soluble fraction (log2)” value: 0.261 for the first, -0.801 for the second.

First: HMQQQLLHIVFGGELKDVTGIEFEDLSKMDFVGAFSNYKDAYDAWKSAAQRTVDHAEMRYFILHAHKLL
Second: HMELSTQERIQILLEILNQREIISFSQTLRKKEGKKGVVVTFLASLELAKDGYVTLVQNKSDQIYLRSN
The “soluble fraction (log2)” value of the first is lower: -2.31 for the first, -0.428 for the second.

Compared with “HMSKLQETEIPVALEVEKIPGLSNELKQKLLKIKPQTIGQASRISGITPAAISILMIYIKKNESISAVK”, “HMDPFVILGISKDSSQSEILEAYKTKRAYYQEHVFDEGDQGAQAARMLGQLDDAYQQAMELSHE” is higher in “soluble fraction (log2)” value: -0.399 for the first, 0.139 for the second.

First: HMSSIRDVVPEGLLSDREKLVLVLAFDRDLDGPDMARTLGISANTVRVLKARALKKLRQAGIQP
Second: HMEPEWVINTDGSNLNEILAIDEVDSRKTFSNDLQEVYRTFGIEAARQILVQEIDAVIESSGA
The “soluble fraction (log2)” value of the first is higher: -0.34 for the first, -0.675 for the second.

“HMKLNEQSMQVIDRIVDRHRGRPGPVKLMLHDVQKELGYIPFEAMEKIAAASGVSADEVYGVVTFYTQFTT” and “HMDIANEQEQIFITAMRNDDFNPILELKMKGYQPSKNVLKSLQPDVSSTTFIAAAKIFQMEGVL” are within 0.2 log units of each other in “soluble fraction (log2)” value: -1.27 for the first, -1.31 for the second.

Going from “HMAEQVLHQKLAARRKELNSLVAQVARVRGIPHSHVHSGLRREAGGPPLAQATTDQVEARISLARKWLRA” to “HMPTTNIRAFRLREADPESVKEALSMVMPKTSIYVDARTKSVLVVGLLDELARAAEIVALIDQP”, the “soluble fraction (log2)” value falls from -0.000969 to -1.13.

Going from “HMPVGSIGERLKALRLKAGLTQEEVGQHVHISKQTLYKYENGIVTNIPADKIELLATIYSVTPAYIMGWA” to “HMETIGKRVRAARQELGLTMKQLHEQTGLSTGNISDIENDRNTPSVSSLVALGRALRRSLDWLLTGEE”, the “soluble fraction (log2)” value falls from -0.118 to -0.555.

“HMQLDLSDPSKNKLDSIVSLPIKSLKAVEANGEILFMSENGRFVLRGQLYDIWYKDTLDTSAQIQDAATRI” and “HMRKIGDVLRLHAGGLSKRRIAVSLNIGRTAVGDYISRARRAGLGWPLPEDLSEEALERLLFPPP” are within 0.2 log units of each other in “soluble fraction (log2)” value: 0.179 for the first, 0.151 for the second.

First: HMEVTENQEKHAYQEAMDQALRFLAPRFLSRAELTRKLLQKEHDRDVIDAVIDRLEELDYVDDAR
Second: HMGSRRFGDSNHAAKLTEEQVVEIRELAAAGATTKFLAEMVGMHPNYVGLILRGLSWPEAGGPLRVA
The “soluble fraction (log2)” value of the first is lower: -0.69 for the first, 0.0889 for the second.

“HMNHLLYPNPANNFIWIKNSTSNTAVIYNLQGVMSKVEVSEEGKIDISRFSPGLYMIKQGERIYKFTIA” and “HMSTEAFLGTEGEVVLPLLPDGLGKIRLHVADQDVELPARTGGEPIQIRERVVVVRFRDGIAEVEPAP” are within 0.2 log units of each other in “soluble fraction (log2)” value: -0.358 for the first, -0.525 for the second.

“HMGERVDGVVKFFNGQKGFGFIQREDGGPDAFVHISAVERAGMAGLDEGQRVSFELELDRRGKQAAINLTP” and “HMGGAYATVKLSSSSSQLNVRASASTASRVVARLSHGFRVEVLGVSGDWVKIRALGVEGYVARAYLALEGE” are within 0.2 log units of each other in “soluble fraction (log2)” value: -0.192 for the first, -0.17 for the second.

“HMSINIDEEKKILGPNADQIIKGITTWGQGLVSKGIWSDADFEEFKIFAATGNGINALNKVRKYY” and “HMHPEQTLEKIVDISAELFAKKGYEQTSIQDILDATGLSKGGLYHHFKSKEEILEAVMQKRVQY” are within 0.2 log units of each other in “soluble fraction (log2)” value: -0.65 for the first, -0.647 for the second.

“HMAPLAVIFPEPWRGMIAPEKLEGLTQALSLNPRPGYQHDPTRRYGVSLDGLDVRFTIDGDTLTVVEVVT” and “HMEIEYFDDEELDAYKGRKSDSYTDEEAAQFAEVLYTMRPSEVKDWTASLTLRGISMPDQIKDEAIMLME” are within 0.2 log units of each other in “soluble fraction (log2)” value: -1.12 for the first, -0.984 for the second.

Compared with “HMDGASVQRITELTATLNRYRHEYYNLAKPSVSDAVYDRLFDELAALEQKTGIVLSNSPTQTV”, “HMNILKAPMPGLILDVIVKESDLVKKGDPVIILEAMKMENILSSPVDGIVKEIKVNPQQTVEKNNTLIKFE” is higher in “soluble fraction (log2)” value: -0.759 for the first, -0.469 for the second.

Compared with “HMSTKEFTIHAGEWSYRVSQKLENLGLVSDAKKFDQYLEDNGYSSKIKIGHYTISKDADFEEIAKEIT”, “HMSIESPEEFNAKFPPGSEIYATNIQKNAIVQSPANAKGDVEILANSMRLTINFRFISKRDT” is higher in “soluble fraction (log2)” value: 0.0658 for the first, 0.334 for the second.

“HMFKLPRTIGTFEDSDVVIGAGKFGPYIMHNKKFVSLPKSEDPLTIGLERAIELISAKREQEKQRH” and “HMNPNEVQIPDLVNKTEEEAEQILKDLKLKLVVKSEEYDENIEKGKIISQDPTYKENYKIKEHSEISVIIS” are within 0.2 log units of each other in “soluble fraction (log2)” value: 0.237 for the first, 0.0816 for the second.

Going from “HMDSTLTNEIYNELYRAITHQELKPGQNLTLTMLKKQFNVSHTPIREALTRLSADGLVTYHPNKGMKVT” to “HMSLPKVLVPTDITVSQLAKYLEVDAIAIVKKLFGLGVVASLNQRLENEQMQLLGQEFGKDIIFTEN”, the “soluble fraction (log2)” value falls from 0.222 to -0.318.

“HMENVMLRNFAIQATEAGVIKLLEDQRTFVWGSNNKKFMTVPFDEHPYSAMAAFFKTDEGLEIYKSIEKKF” and “HMSSDEDELESIIKRVFADNPIELERLQNGEDKLIKFFMGLVMRQTKGKYPPKIIIDLLNKS” are within 0.2 log units of each other in “soluble fraction (log2)” value: -1.43 for the first, -1.54 for the second.

“HMYIEKTAYINDTAVNVRKSATTDSDVIKVLALNTEITIIGEENDWYKVKSGNDIGYIAKRLVSDQKKE” and “HMHRGTPASIIAAAKQYLTGGQTVELYEREGGPWTFRLRTYLSETPYPEKVRASVEALKPAGVVFLYELQS” are within 0.2 log units of each other in “soluble fraction (log2)” value: -0.109 for the first, -0.112 for the second.

“HMEIVSTEEKIKRAAEQVFLLRGLEGARMQEIADVAGINKAMLHYYFRNKETLFDVILSEKL” and “HMAWIAVATKEDYSEYEWKELSPTTDWSTQTFDLGDLAGKTIYAVKMFFDHDTDVKDYKFNLGQLSITSN” are within 0.2 log units of each other in “soluble fraction (log2)” value: -1.14 for the first, -1.22 for the second.

Compared with “HMDPPVDLTPREQQVLSRIALGMSDKAIAAELGVSHQTVRNHVARIYAKIKVHSRSQAIVWAREKGIP”, “HMTKDVIEIVDGNKFVFHKTIATDSVSSVINKYHISEADFRTWNELTGDMKVGEEYIVQLSLH” is lower in “soluble fraction (log2)” value: -0.109 for the first, -0.576 for the second.

“HMTTPDIIVPDVKGMTVAEAQKALEEKGFKVKLEEMTQEGAVPGDVIRIDPVAGTKRKEGAKITLLIARG” and “HMGSVDMVYGDHKINSEHMDLSFKNQTAVLYDKVNYKSSLSMLSADKILVNFLNKYTKIEMNDENNNILIQ” are within 0.2 log units of each other in “soluble fraction (log2)” value: -0.0525 for the first, -0.128 for the second.

Going from “HMEDKPITKEQKQAMFALLREHFSGDEGNAVYTAVLEREGLAPGDKIMSSVYDRLIDGINEAIRQKLEAGA” to “HMGDAIPVPDVSGFSEDQAMNNLRKVGLRPKATYVADDNTAKGYVTGTSPAKNIEVAPDSEVIVYVSSGP”, the “soluble fraction (log2)” value rises from -0.133 to 0.241.

First: HMLDPKVFVGKAGINEGIAKLLLQAFDKADLVKVRFTAERDVMETQMQELARLTGSEVIGNVGRTATF
Second: HMLEQISDINILSGYAKEVIAENPKTVSDYLSGKAAAFQALVGQVMKKTGGRGNPVIIQEILKRLIHKK
The “soluble fraction (log2)” value of the first is higher: 0.168 for the first, -0.182 for the second.

Going from “HMDEFQLTPREQEILGLLVKGYTYKRIASELNLSYATVNRHVSNVYVKLRVHSVNEAVALAVRKGL” to “HMYSLSELERIKNFLTGYMSDYSIMMLDANEITNQVDISLKDYSDDNIESIKAAVLSHGGKTDYLNFIDDS”, the “soluble fraction (log2)” value falls from -0.543 to -1.01.

First: HMTATSKKAAWDEVNKIFPTDYERSAAESERAGYAIFRSTAEGVNAWISDLGDRLEINLPDGKTVNIWIEE
Second: HMNIQKYFAGREQFIELLEAVGIRTLEQFASADPSTVLPELHQAKRMLKLQTEIPSAPVFREWVNQALS
The “soluble fraction (log2)” value of the first is higher: -0.624 for the first, -0.901 for the second.

Compared with “HMILYDDEYKGPRYRYGLHSRPLSPGAVPKGFIIHSDRPHPDFRHGTLDYPVKLPDDRAANFELIFIGEFD”, “HMGRDWKTDLLNLATARGWGDVSYEVTGEGPDHARVYTAVAIVANQKTGTGVGPSKKEAERLAAEQAYRML” is higher in “soluble fraction (log2)” value: -1.19 for the first, 0.132 for the second.

Going from “HMFQLSNEAKQQVLGELKRYESKQSAVLPALYIGQKDNKGHITPEVIRELSKVMDIPESQINEVFTFYTM” to “HMAVLGIQPVFHRSTGQTVYKSSVNTAKGRVYLGLFPTLTEALEIKLKYMQEHGHTKGITNLTNKLKEL”, the “soluble fraction (log2)” value rises from -0.402 to 0.22.

“HMQAGNAVEQYPTIGRLEEVTLGRSQPGAPIGERLSTLETVVFKRNFNDDSLFDRTERLKKTILGG” and “HMQILLASHAELAKGILSAVELIAGTQQNLKAYSAYTEAVDVHFKDQMLQDLNKMDPEDEVIL” are within 0.2 log units of each other in “soluble fraction (log2)” value: -0.0794 for the first, 0.0244 for the second.

Going from “HMREITVEELYELEGIRIVGTIPGISAWVAESGRQMVFLVGQKVKGHDLLEVGESRVVLRKGDSVVNVLL” to “HMSNEWIEISAKTVDDAINEGLIRLGTTTDKMDVEVLEKESAGFLGFIGKHDAKIRVRFKEV”, the “soluble fraction (log2)” value rises from -1.21 to -0.608.

Compared with “HMGGHLAYGFSRRFGLLIDEQQGEPVIIARPDYSPVHYAEARRIVGQPAALRVVDEQAFNQLLQSQQESGA”, “HMKDIIVDPQGQYNHPGVPTRIPSSDITMKGVGYPVLGIADNGQKQMMQPGQDYKFPGAKYVDEYPQM” is higher in “soluble fraction (log2)” value: -0.383 for the first, 0.0501 for the second.

Going from “HMNNLLEDIKARLMAQAEAGGHIDTETELAEHFGVTRYRIRKELDLLSQMGLLRRQPKNGIEVLTV” to “HMYNSYALTARELELVNYVLKGNSRREMAEDSGLKENTVASYMKRLYRKIKVHSRKELKELFM”, the “soluble fraction (log2)” value falls from 0.22 to -0.422.

Compared with “HMAGATDTVRNLLERQIREGELLPGQRLPTEPELAARLGVSRNSLREALQSLEDSGLIVKRHGIGTFVTE”, “HMDYPFQYFNYSHLRILGVPAQLIKAVRKAPTLDAIEQLSGLSEKTKLWLLELATEPKLEDVLFDPGR” is lower in “soluble fraction (log2)” value: 0.22 for the first, -0.515 for the second.

Going from “HMGEPQAWNELIGNLLRQWEARQTGWTPARKREALDRVLGAADPAALYTRLQGLLKSWTQAMTDADA” to “HMLTWNQLGLITKPVVFLDGTGYYARLFEAFEHMISTGFVKENYRAMMNRATSVEEAVRIASSPAPKVD”, the “soluble fraction (log2)” value rises from -0.956 to -0.187.

Going from “HMIDRPLTLVEDYERFAGELAKITLRFMLDGRKRFNGRLAGFDEDGKIVLETSFGRFAFSFDEIDSARI” to “HMDPKISWESDEKLSANIGHYENSIKPLMGNKYLIELSQLKDKIESHPWVARATIKRIFWNKIHIQLESHD”, the “soluble fraction (log2)” value rises from -2.08 to 0.108.

Compared with “HMKPQIRRHEKITALVREHGFMSVEQLARELEVTPQTIRRDIGILSAENVLRRYHGGAALGD”, “HMLSLSDIINDVMERLTREKNLTFDELLGEKRERRRIVYTFLALLELIRLKMIKAYQTAAFGVIRIFPR” is lower in “soluble fraction (log2)” value: 0.148 for the first, -1.15 for the second.

In the case of “HMALSTRERMSFVLEVLKEKEFIPFVDLFSPEEGRAGVVVTFLALMELMKDSLIEIVQTKNFGEIHVRARL”, the “soluble fraction (log2)” value is reported as -1.07.
